Patent US20240066142A1, “A UPAR (UROKINASE PLASMINOGEN ACTIVATOR RECEPTOR)-TARGETING CONJUGATE” (FLUOGUIDE A/S, priority 2021, published 2024)
Primed or numbered codes have the meaning given here. [ ]: non-standard residue; d: D form. Cha = N[C@@H](CC1CCCCC1)C(=O)O; IRDye800CW′ = not defined here; AEEA = NCCOCCOCC(=O)O

What was measured:
human uPAR = human uPAR (Homo sapiens, UniProt Q03405); assay: SPR binding of conjugate or uPA to immobilized His-tagged recombinant human uPAR
Experimental: SPR was also applied to determine the KD-value of binding of the uPAR-binding conjugate to uPAR.
The uPAR-binding conjugates as well as the endogenous ligand uPA were analyzed in 2-fold dilution series from low to high concentration with a running buffer injection in between each injection. Injection of uPAR-binding conjugate or uPA (at a rate of 50 μL/minute) was performed for 120 seconds (association), and dissociation was assessed for 120 s (at a rate of 50 μL/minute). Running buffer was PBS supplemented with 0.01% Tween-20 and 50 μM EDTA).
Binding affinities were determined using the above described SPR-based approach, measuring binding affinities (KD) of the uPAR-targeting conjugates to immobilized human uPAR protein (the tumor target protein).

uPAR·uPA interaction = uPAR·uPA interaction (Homo sapiens, UniProt Q03405); assay: SPR competition: inhibition of the uPAR·uPA interaction (immobilized human uPA, 2.5 nM uPAR); assay type: binding; conditions: uPAR 2.5 nM pre-incubated 10 minutes with conjugate
Chain of uPAR·uPA interaction (Q03405 23-305): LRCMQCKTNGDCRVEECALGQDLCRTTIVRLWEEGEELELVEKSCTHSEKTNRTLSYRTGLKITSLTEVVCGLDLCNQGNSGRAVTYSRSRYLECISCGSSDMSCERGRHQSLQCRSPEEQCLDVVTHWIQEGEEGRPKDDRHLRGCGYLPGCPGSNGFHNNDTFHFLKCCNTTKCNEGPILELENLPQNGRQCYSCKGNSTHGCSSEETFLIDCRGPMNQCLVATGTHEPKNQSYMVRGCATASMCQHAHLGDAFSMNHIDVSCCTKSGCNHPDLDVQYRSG
Experimental: Surface plasmon resonance (SPR) was applied to determine the IC50-value of uPAR-targeting conjugate for its ability to inhibit the uPAR·uPA interaction. In brief, human recombinant uPA, which is the natural ligand for uPAR, was immobilized to the SPR sensor chip. Binding of uPAR at a concentration of 2.5 nM in the absence of UPAR-binding conjugate was examined, followed by analyses of a fixed uPAR concentration (2.5 nM) incubated with a 2-fold dilution series of uPAR-binding conjugate pre-incubated for 10 minutes at room temperature prior to injection. uPAR injection (at a rate of 50 μL/minute) was performed for 300 s (association), and dissociation was assessed for 500 s (at a rate of 50 μL/minute). The uPAR/uPAR-binding conjugate complex was injected from low to high concentration with a regeneration step followed by a buffer injection in between each injection. Regeneration was performed for 20 s by injection of 0.5 M NaCl+0.1 M Acetic acid at a 30 μL/min flow rate, followed by running buffer wash (running buffer: PBS supplemented with 0.01% Tween-20 and 50 μM EDTA).
From this type of SPR analysis, the IC50 values for uPAR-targeting conjugates were determined.
The top signal represents uPAR binding in the absence of uPAR-targeting conjugate.

[1] = molecular target: human uPAR (urokinase Plasminogen Activator Receptor), in solution at 2.5 nM in the competition SPR assay (human) (UniProt Q03405); assay: SPR competition: 2.5 nM uPAR pre-incubated with dilution series of conjugate, injected over immobilised human uPA
Chain of human uPAR (urokinase Plasminogen Activator Receptor), in solution at 2.5 nM in the competition SPR assay (human) (Q03405 23-305 limits assumed): as the sequence (Q03405 23-305) above

[2] = molecular target: recombinant human uPAR containing a His-tag (immobilized to a NTA chip) (human) (UniProt Q03405); assay: SPR, His-tagged human uPAR on NTA chip, steady-state responses
Chain of recombinant human uPAR containing a His-tag (immobilized to a NTA chip) (human) (Q03405 23-305 limits assumed): as the sequence (Q03405 23-305) above

CC(C)C[C@H](NC(=O)[C@H](Cc1ccc(O)cc1)NC(=O)[C@@H](CCCNC(=N)N)NC(=O)[C@@H](CO)NC(=O)[C@H](Cc1ccccc1)NC(=O)[C@H](CC1CCCCC1)NC(=O)[C@H](CC(=O)O)NC(=O)COCCOCCNC(=O)COCCOCCNC(=O)[C@H](CCC(=O)O)NC(=O)[C@H](CCC(=O)O)NC(=O)CCCCCN1C(=CC=C2CCCC(C=CC3=[N+](CCCCS(=O)(=O)[O-])c4ccc(S(=O)(=O)O)cc4C3(C)C)=C2Oc2ccc(S(=O)(=O)O)cc2)C(C)(C)c2cc(S(=O)(=O)O)ccc21)C(=O)N[C@@H](Cc1c[nH]c2ccccc12)C(=O)N[C@@H](CO)C(=O)O [Compound example 2, IRDye800CW-EE-020c-020c-DChaFsrYLWS-OH]
kon (human uPAR; on-rate binding): ≥ 4.6e+06 M⁻¹ s⁻¹

Compound example 1: uPAR-targeting conjugate based on the fluorophore ICG and the peptide AE105 (DXFSRYLWS; D-residues; non-natural residues; cyclised or stapled)
IC50 (uPAR·uPA interaction): 7 nM
Kd (human uPAR; KD from steady state binding responses where Kon too fast): 2000 nM
Kon (human uPAR; on-rate binding): ≥4.6e+06 M⁻¹ s⁻¹

B1: Compound example 2 (IRDye800CW-conjugated uPAR-targeting peptide, based on the fluorophore IRDye800CW and the peptide AE344) (peptide)
peptide: {IRDye800CW′}-EE[AEEA][AEEA]D[Cha]F[dS][dR]YLWS-OH
IC50 [1]: 24 nM
Kd [2]: 325 nM
